Experimental data taken from patent US20240116985A1 (published 2024).
Starred links: 1 amine or outer side, 2 acyl side, 3 side chain; linkers in the order of their positions; H or OH if unused. Positions of bridges follow the written chain, without caps; N, C: chain ends. Non-standard residues stand in square brackets, D forms with d. Primed or numbered codes have the meaning given here. B5(4) = 2,2-bis(4-pentenyl)glycine = 2-amino-2-(pent-4-en-1-yl)hept-6-enoic acid (stitching residue), C=CCCCC(CCCC=C)(N[*:1])C(=O)[*:2]; B5(5) = 2,2-bis(4-pentenyl)glycine, 2-amino-2-(pent-4-en-1-yl)hept-6-enoic acid (stitching residue), C=CCCCC(CCCC=C)(N[*:1])C(=O)[*:2]; PyrS″ = (S)-1-((allyloxy)carbonyl)-3-aminopyrrolidine-3-carboxylic acid (stapling residue), C=CCOC(=O)N1CC[C@@](N[*:1])(C(=O)[*:2])C1; PyrS = (S)-1-((allyloxy)carbonyl)-3-aminopyrrolidine-3-carboxylic acid, C=CCOC(=O)N1CC[C@@](N[*:1])(C(=O)[*:2])C1; B5(3) = 2,2-bis(4-pentenyl)glycine (stitching residue), C=CCCCC(CCCC=C)(N[*:1])C(=O)[*:2]; Phe(3-CF3) = N[C@@H](Cc1cccc(C(F)(F)F)c1)C(=O)O; Phe(4-CF3) = N[C@@H](Cc1ccc(C(F)(F)F)cc1)C(=O)O; Phe(F5) = N[C@@H](Cc1c(F)c(F)c(F)c(F)c1F)C(=O)O; Bip = N[C@@H](Cc1ccc(-c2ccccc2)cc1)C(=O)O; 1Nal = N[C@@H](Cc1cccc2ccccc12)C(=O)O; 2Nal = N[C@@H](Cc1ccc2ccccc2c1)C(=O)O; Bta = N[C@@H](Cc1csc2ccccc12)C(=O)O; αAllylPro = C=CC[C@@]1(C(=O)O)CCCN1; 2Pal = N[C@@H](Cc1ccccn1)C(=O)O; R8 = C=CCCCCCC[C@@](C)(N)C(=O)O; S8 = C=CCCCCCC[C@](C)(N)C(=O)O

T1: full-length beta-Catenin (Uniprot ID P35222) (Homo sapiens (Human), UniProt P35222 2-781)
T1 construct: The AlphaScreen assay used a Histidine (Nickel Chelate) detection kit, so a His tag is likely, but no tag is described; also called B-Catenin; bCat
T1 sequence: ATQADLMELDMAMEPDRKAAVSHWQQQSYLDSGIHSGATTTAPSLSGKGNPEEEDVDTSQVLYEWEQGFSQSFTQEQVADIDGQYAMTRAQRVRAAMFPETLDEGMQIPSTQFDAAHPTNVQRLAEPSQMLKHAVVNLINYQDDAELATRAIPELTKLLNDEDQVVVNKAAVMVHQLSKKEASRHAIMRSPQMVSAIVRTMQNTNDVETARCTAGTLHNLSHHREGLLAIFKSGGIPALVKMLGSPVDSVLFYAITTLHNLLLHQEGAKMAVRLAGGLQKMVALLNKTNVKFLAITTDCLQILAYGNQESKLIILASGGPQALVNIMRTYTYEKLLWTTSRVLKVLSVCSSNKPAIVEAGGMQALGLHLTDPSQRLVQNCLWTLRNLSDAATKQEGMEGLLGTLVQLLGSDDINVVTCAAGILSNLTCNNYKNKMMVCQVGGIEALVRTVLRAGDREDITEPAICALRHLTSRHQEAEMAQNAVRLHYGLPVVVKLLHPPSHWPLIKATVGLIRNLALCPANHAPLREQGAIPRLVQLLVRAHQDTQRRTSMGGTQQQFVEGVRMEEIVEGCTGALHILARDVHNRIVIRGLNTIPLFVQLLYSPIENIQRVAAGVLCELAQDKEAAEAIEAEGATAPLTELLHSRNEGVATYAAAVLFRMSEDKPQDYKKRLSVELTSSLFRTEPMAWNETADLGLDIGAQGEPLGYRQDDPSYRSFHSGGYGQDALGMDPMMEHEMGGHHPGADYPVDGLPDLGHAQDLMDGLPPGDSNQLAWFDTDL

B1: I-235 (peptide)
peptide: Ac-[αAllylPro]DA[B5(3)]D[Bip]AAFV[S8]FWQ-NH2
modifications: staple 1-4, 4-11
notes: Stapled peptide composition; also called Ac-PL3-Asp-Ala-B5-Asp-Bip-Ala-Ala-Phe-Val-S8-Phe-Trp-Gln-NH2
B2: I-231 (peptide)
peptide: Ac-[αAllylPro]DA[B5(4)]D[Bta]AAFV[S8]FWQ-NH2
modifications: staple 1-4, 4-11
notes: Stapled peptide composition; also called Ac-PL3-Asp-Ala-B5-Asp-BztA-Ala-Ala-Phe-Val-S8-Phe-Trp-Gln-NH2
B3: I-238 (peptide)
peptide: Ac-[αAllylPro]DA[B5(3)]DDAA[Phe(3-CF3)]V[S8]FWQ-NH2
modifications: staple 1-4, 4-11
notes: Stapled peptide composition; also called Ac-PL3-Asp-Ala-B5-Asp-Asp-Ala-Ala-3F3MeF-Val-S8-Phe-Trp-Gln-NH2
B4: I-221 (peptide)
peptide: Ac-FDA[R8]DDAAFT[PyrS]FWQ-NH2
modifications: staple 4-11
notes: Stapled peptide composition; also called Ac-Phe-Asp-Ala-R8-Asp-Asp-Ala-Ala-Phe-Thr-PyrS-Phe-Trp-Gln-NH2
B5: I-227 (peptide)
peptide: Ac-FDA[R8]DDAAFV[PyrS″][Phe(F5)]WQ-NH2
modifications: staple 4-11
notes: Stapled peptide composition; also called Ac-Phe-Asp-Ala-R8-Asp-Asp-Ala-Ala-Phe-Val-PyrS-Pff-Trp-Gln-NH2
B6: I-226 (peptide)
peptide: Ac-FDA[R8]DDAAFV[PyrS″][Phe(F5)]WQ-NH2
modifications: staple 4-11
notes: as for B5
B7: I-225 (peptide)
peptide: Ac-FDA[R8]DDAAFV[PyrS][Phe(F5)]WQ-NH2
modifications: staple 4-11
notes: as for B5
B8: I-228 (peptide)
peptide: Ac-FDA[R8]DDAAFV[PyrS][Phe(F5)]WQ-NH2
modifications: staple 4-11
notes: as for B5
B9: I-224 (peptide)
peptide: Ac-FDA[R8]DDAAFT[PyrS]FWQ-NH2
modifications: staple 4-11
notes: as for B4
B10: I-237 (peptide)
peptide: Ac-[αAllylPro]DA[B5(3)]DDAA[Phe(3-CF3)]V[S8]FWQ-NH2
modifications: staple 1-4, 4-11
notes: as for B3
B11: I-234 (peptide)
peptide: Ac-[αAllylPro]DA[B5(3)]D[1Nal]AAFV[S8]FWQ-NH2
modifications: staple 1-4, 4-11
notes: Stapled peptide composition; also called Ac-PL3-Asp-Ala-B5-Asp-1NapA-Ala-Ala-Phe-Val-S8-Phe-Trp-Gln-NH2
B12: I-230 (peptide)
peptide: Ac-[αAllylPro]DA[B5(4)][2Pal]EAAFV[S8]FWQ-NH2
modifications: staple 1-4, 4-11; also: separate staple isomer composition
notes: Stapled peptide composition; also called Ac-PL3-Asp-Ala-B5-2pyrA-Glu-Ala-Ala-Phe-Val-S8-Phe-Trp-Gln-NH2
B13: I-239 (peptide)
peptide: Ac-[αAllylPro]DA[B5(5)]DDAA[Phe(3-CF3)]V[S8]FWQ-NH2
modifications: staple 1-4, 4-11; not fully specified; printed as Ac-PL3-Asp-Ala-B5-Asp-Asp-Ala-Ala-3F3MeF-Val-S8-Phe-Trp-Gln-NH2
notes: as for B3
B14: I-247 (peptide)
peptide: Ac-[αAllylPro]DA[B5(4)]D[Phe(4-CF3)]AAFV[S8]FWQ-NH2
modifications: staple 1-4, 4-11
notes: Stapled peptide composition; also called Ac-PL3-Asp-Ala-B5-Asp-4F3MeF-Ala-Ala-Phe-Val-S8-Phe-Trp-Gln-NH2
B15: I-232 (peptide)
peptide: Ac-[αAllylPro]DA[B5(4)]D[2Nal]AAFV[S8]FWQ-NH2
modifications: staple 1-4, 4-11
notes: Stapled peptide composition; also called Ac-PL3-Asp-Ala-B5-Asp-2NapA-Ala-Ala-Phe-Val-S8-Phe-Trp-Gln-NH2
B16: I-223 (peptide)
peptide: Ac-FDA[R8]DDAAFT[PyrS″]FWQ-NH2
modifications: staple 4-11
notes: as for B4
B17: I-222 (peptide)
peptide: Ac-FDA[R8]DDAAFT[PyrS″]FWQ-NH2
modifications: staple 4-11
notes: as for B4
B18: I-229 (peptide)
peptide: Ac-[αAllylPro]DA[B5(4)][2Pal]EAAFV[S8]FWQ-NH2
modifications: staple 1-4, 4-11; also: separate staple isomer composition
notes: as for B12

molecular target: T1, full-length beta-Catenin (Uniprot ID …); experiment: AlphaScreen competition: full-length beta-catenin + biotin-TCF4(10-53) probe, peptide titrated
Experimental: Equal volume of the titrated peptide was added to the plate and incubated for 15 minutes at 20° C. Then 4 uL of donor and 4 uL acceptor beads at 10 ug/mL were added to the plate, for a 16 uL reaction pool and protected from light for 60 minutes at 20° C. prior to read. Reads were performed on a CLARIOstar plate reader (BMG Labtech) in duplicate, and data were fitted to a 1:1 binding model with hill slope using an in-house script. All provided concentrations are final concentrations.

| EC50 | Binder |
| --- | --- |
| 7.34 µM | B1 |
| 6.53 µM | B2 |
| 0.267 µM | B3 |
| 6.58 µM | B4 |
| 5.91 µM | B5 |
| 7.63 µM | B6 |
| 7.63 µM | B7 |
| 5.91 µM | B8 |
| 4.12 µM | B9 |
| 0.384 µM | B10 |
| 7.53 µM | B11 |
| 4.61 µM | B12 |
| 0.267 µM | B13 |
| 3.97 µM | B14 |
| 7.64 µM | B15 |
| 4.12 µM | B16 |
| 6.58 µM | B17 |
| 5.81 µM | B18 |
